Data as given in the supplement of paper PMC5998384.

Key:
[1] = test system: HeLa Kyoto; experiment: thermal stability score vs G1/S (z-score of summed log2 fold changes over temperatures); higher = more thermally stable than in G1/S
[2] = test system: HeLa Kyoto; experiment: solubility in G1/S (NP-40 vs SDS abundance) (log2 ratio); higher = more soluble; details: cell cycle stage: G1/S
[3] = test system: HeLa Kyoto; experiment: melting temperature (median over replicates), in situ; higher = more thermally stable
[4] = test system: HeLa Kyoto; experiment: solubility change mitosis vs G1/S (difference of NP-40 vs SDS log2 ratios) (log2 ratio difference); higher = more soluble in mitosis
[5] = cell cycle stage: early G1 (4.5 h after nocodazole release)
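Wherever melting temperature (median over replicates), in situ is given: HeLa Kyoto cells synchronized by double thymidine or nocodazole block, proteins quantified by TMT10plex mass spectrometry, three independent biological replicates.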
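Wherever solubility change mitosis vs G1/S (difference of NP-40 vs SDS log2 ratios) is given: synchronized HeLa Kyoto cells (double thymidine block for G1/S, nocodazole release for mitosis), protein amounts in NP-40 versus SDS lysates quantified by mass spectrometry, three biological replicates.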
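Wherever solubility in G1/S (NP-40 vs SDS abundance) is given: HeLa Kyoto cells arrested at G1/S by double thymidine block, proteins quantified by TMT10plex mass spectrometry in mild NP-40 versus SDS extracts, three biological replicates.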
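Wherever thermal stability score vs G1/S (z-score of summed log2 fold changes over temperatures) is given: synchronized HeLa Kyoto cells, proteins quantified by TMT10plex mass spectrometry, three biological replicates, mitosis taken 0.5 h after nocodazole release, G1/S directly after double thymidine block.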

Chain of HSPA5 (chain, as listed by the source): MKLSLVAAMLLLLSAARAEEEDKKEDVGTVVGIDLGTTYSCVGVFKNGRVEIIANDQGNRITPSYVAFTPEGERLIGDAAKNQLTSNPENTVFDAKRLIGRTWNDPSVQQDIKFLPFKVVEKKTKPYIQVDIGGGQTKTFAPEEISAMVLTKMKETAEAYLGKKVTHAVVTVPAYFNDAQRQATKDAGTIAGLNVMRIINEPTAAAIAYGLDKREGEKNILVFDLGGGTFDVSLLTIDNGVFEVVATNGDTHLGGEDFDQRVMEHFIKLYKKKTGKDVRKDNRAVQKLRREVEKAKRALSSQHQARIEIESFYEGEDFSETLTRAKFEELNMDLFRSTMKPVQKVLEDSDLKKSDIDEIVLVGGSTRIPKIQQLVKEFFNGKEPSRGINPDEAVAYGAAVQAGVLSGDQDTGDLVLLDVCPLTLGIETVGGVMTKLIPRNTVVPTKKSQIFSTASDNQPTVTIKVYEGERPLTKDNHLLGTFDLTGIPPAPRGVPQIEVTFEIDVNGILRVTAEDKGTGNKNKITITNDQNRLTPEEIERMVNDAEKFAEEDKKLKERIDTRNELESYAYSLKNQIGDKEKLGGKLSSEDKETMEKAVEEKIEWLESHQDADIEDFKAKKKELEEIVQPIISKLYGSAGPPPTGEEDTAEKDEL

Substance | thermal stability score [1, 5] | thermal stability score ([1]; cell cycle stage: mitosis) | solubility in G1/S (log2) [2] | melting temperature ([3]; cell cycle stage: G1/S) [°C] | melting temperature ([3]; cell cycle stage: mitosis) [°C] | solubility change mitosis (log2) [4]
MPHRKKKPFIEKKKAVSFHLVHRSQRDPLAADESAPQRVLLPTQKIDNEERRAEQRKYGVFFDDDYDYLQHLKEPSGPSELIPSSTFSAHNRREEKEETLVIPSTGIKLPSSVFASEFEEDVGLLNKAAPVSGPRLDFDPDIVAALDDDFDFDDPDNLLEDDFILQANKATGEEEGMDIQKSENEDDSEWEDVDDEKGDSNDDYDSAGLLSDEDCMSVPGKTHRAIADHLFWSEETKSRFTEYSMTSSVMRRNEQLTLHDERFEKFYEQYDDDEIGALDNAELEGSIQVDSNRLQEVLNDYYKEKAENCVKLNTLEPLEDQDLPMNELDESEEEEMITVVLEEAKEKWDCESICSTYSNLYNHPQLIKYQPKPKQIRISSKTGIPLNVLPKKGLTAKQTERIQMINGSDLPKVSTQPRSKNESKEDKRARKQAIKEERKERRVEKKANKLAFKLEKRRQEKELLNLKKNVEGLKL [LTV1] | -2.27 | -0.672 | -0.271 | 50.1 | 48.8 | -0.0961
MWPGNAWRAALFWVPRGRRAQSALAQLRGILEGELEGIRGAGTWKSERVITSRQGPHIRVDGVSGGILNFCANNYLGLSSHPEVIQAGLQALEEFGAGLSSVRFICGTQSIHKNLEAKIARFHQREDAILYPSCYDANAGLFEALLTPEDAVLSDELNHASIIDGIRLCKAHKYRYRHLDMADLEAKLQEAQKHRLRLVATDGAFSMDGDIAPLQEICCLASRYGALVFMDECHATGFLGPTGRGTDELLGVMDQVTIINSTLGKALGGASGGYTTGPGPLVSLLRQRARPYLFSNSLPPAVVGCASKALDLLMGSNTIVQSMAAKTQRFRSKMEAAGFTISGASHPICPVMLGDARLASRMADDMLKRGIFVIGFSYPVVPKGKARIRVQISAVHSEEDIDRCVEAFVEVGRLHGALP [GCAT] | -0.218 | -1.56 | 0.194 | 53.3 | 53.3 | -0.0435
MSVNSEKSSSSERPEPQQKAPLVPPPPPPPPPPPPPLPDPTPPEPEEEILGSDDEEQEDPADYCKGGYHPVKIGDLFNGRYHVIRKLGWGHFSTVWLCWDMQGKRFVAMKVVKSAQHYTETALDEIKLLKCVRESDPSDPNKDMVVQLIDDFKISGMNGIHVCMVFEVLGHHLLKWIIKSNYQGLPVRCVKSIIRQVLQGLDYLHSKCKIIHTDIKPENILMCVDDAYVRRMAAEATEWQKAGAPPPSGSAVSTAPQQKPIGKISKNKKKKLKKKQKRQAELLEKRLQEIEELEREAERKIIEENITSAAPSNDQDGEYCPEVKLKTTGLEEAAEAETAKDNGEAEDQEEKEDAEKENIEKDEDDVDQELANIDPTWIESPKTNGHIENGPFSLEQQLDDEDDDEEDCPNPEEYNLDEPNAESDYTYSSSYEQFNGELPNGRHKIPESQFPEFSTSLFSGSLEPVACGSVLSEGSPLTEQEESSPSHDRSRTVSASSTGDLPKAKTRAADLLVNPLDPRNADKIRVKIADLGNACWVHKHFTEDIQTRQYRSIEVLIGAGYSTPADIWSTACMAFELATGDYLFEPHSGEDYSRDEDHIAHIIELLGSIPRHFALSGKYSREFFNRRGELRHITKLKPWSLFDVLVEKYGWPHEDAAQFTDFLIPMLEMVPEKRASAGECLRHPWLNS [SRPK2] | -3.22 | -4.46 | -0.405 | 53.3 | 52.2 | 0.0499
MATSPQKSPSVPKSPTPKSPPSRKKDDSFLGKLGGTLARRKKAKEVSELQEEGMNAINLPLSPIPFELDPEDTMLEENEVRTMVDPNSRSDPKLQELMKVLIDWINDVLVGERIIVKDLAEDLYDGQVLQKLFEKLESEKLNVAEVTQSEIAQKQKLQTVLEKINETLKLPPRSIKWNVDSVHAKSLVAILHLLVALSQYFRAPIRLPDHVSIQVVVVQKREGILQSRQIQEEITGNTEALSGRHERDAFDTLFDHAPDKLNVVKKTLITFVNKHLNKLNLEVTELETQFADGVYLVLLMGLLEGYFVPLHSFFLTPDSFEQKVLNVSFAFELMQDGGLEKPKPRPEDIVNCDLKSTLRVLYNLFTKYRNVE [PARVA] | 1.2 | 1.23 | 0.479 | 51 | 50.8 | -0.0689
MPRVVPDQRSKFENEEFFRKLSRECEIKYTGFRDRPHEERQARFQNACRDGRSEIAFVATGTNLSLQFFPASWQGEQRQTPSREYVDLEREAGKVYLKAPMILNGVCVIWKGWIDLQRLDGMGCLEFDEERAQQEDALAQQAFEEARRRTREFEDRDRSHREEMEVRVSQLLAVTGKKTTRP [CBFB] | 0.755 | 0.955 | 0.199 | 49 | 51.2 | -0.072
HSPA5 | 3.25 | 3.15 | 0.316 | 55.5 | 56.9 | 0.0735
CTSZ | -1.5 | -2.8 | 0.192 | 56.1 | 55 | -0.0457
MAAGAAEAAVAAVEEVGSAGQFEELLRLKAKSLLVVHFWAPWAPQCAQMNEVMAELAKELPQVSFVKLEAEGVPEVSEKYEISSVPTFLFFKNSQKIDRLDGAHAPELTKKVQRHASSGSFLPSANEHLKEDLNLRLKKLTHAAPCMLFMKGTPQEPRCGFSKQMVEILHKHNIQFSSFDIFSDEEVRQGLKAYSSWPTYPQLYVSGELIGGLDIIKELEASEELDTICPKAPKLEERLKVLTNKASVMLFMKGNKQEAKCGFSKQILEILNSTGVEYETFDILEDEEVRQGLKAYSNWPTYPQLYVKGELVGGLDIVKELKENGELLPILRGEN [GLRX3] | 2.12 | 1.6 | 0.354 | 49.6 | 49.9 | -0.111
MYYKFSGFTQKLAGAWASEAYSPQGLKPVVSTEAPPIIFATPTKLTSDSTVYDYAGKNKVPELQKFFQKADGVPVYLKRGLPDQMLYRTTMALTVGGTIYCLIALYMASQPKNK [COX7A2L] | -2.74 | -1.52 | -0.0362 | 55.7 | 52.3 | 0.107
MAAQVTLEDALSNVDLLEELPLPDQQPCIEPPPSSLLYQPNFNTNFEDRNAFVTGIARYIEQATVHSSMNEMLEEGQEYAVMLYTWRSCSRAIPQVKCNEQPNRVEIYEKTVEVLEPEVTKLMNFMYFQRNAIERFCGEVRRLCHAERRKDFVSEAYLITLGKFINMFAVLDELKNMKCSVKNDHSAYKRAAQFLRKMADPQSIQESQNLSMFLANHNKITQSLQQQLEVISGYEELLADIVNLCVDYYENRMYLTPSEKHMLLKVMGFGLYLMDGSVSNIYKLDAKKRINLSKIDKYFKQLQVVPLFGDMQIELARYIKTSAHYEENKSRWTCTSSGSSPQYNICEQMIQIREDHMRFISELARYSNSEVVTGSGRQEAQKTDAEYRKLFDLALQGLQLLSQWSAHVMEVYSWKLVHPTDKYSNKDCPDSAEEYERATRYNYTSEEKFALVEVIAMIKGLQVLMGRMESVFNHAIRHTVYAALQDFSQVTLREPLRQAIKKKKNVIQSVLQAIRKTVCDWETGHEPFNDPALRGEKDPKSGFDIKVPRRAVGPSSTQLYMVRTMLESLIADKSGSKKTLRSSLEGPTILDIEKFHRESFFYTHLINFSETLQQCCDLSQLWFREFFLELTMGRRIQFPIEMSMPWILTDHILETKEASMMEYVLYSLDLYNDSAHYALTRFNKQFLYDEIEAEVNLCFDQFVYKLADQIFAYYKVMAGSLLLDKRLRSECKNQGATIHLPPSNRYETLLKQRHVQLLGRSIDLNRLITQRVSAAMYKSLELAIGRFESEDLTSIVELDGLLEINRMTHKLLSRYLTLDGFDAMFREANHNVSAPYGRITLHVFWELNYDFLPNYCYNGSTNRFVRTVLPFSQEFQRDKQPNAQPQYLHGSKALNLAYSSIYGSYRNFVGPPHFQVICRLLGYQGIAVVMEELLKVVKSLLQGTILQYVKTLMEVMPKICRLPRHEYGSPGILEFFHHQLKDIVEYAELKTVCFQNLREVGNAILFCLLIEQSLSLEEVCDLLHAAPFQNILPRVHVKEGERLDAKMKRLESKYAPLHLVPLIERLGTPQQIAIAREGDLLTKERLCCGLSMFEVILTRIRSFLDDPIWRGPLPSNGVMHVDECVEFHRLWSAMQFVYCIPVGTHEFTVEQCFGDGLHWAGCMIIVLLGQQRRFAVLDFCYHLLKVQKHDGKDEIIKNVPLKKMVERIRKFQILNDEIITILDKYLKSGDGEGTPVEHVRCFQPPIHQSLASS [CYFIP1] | -0.593 | -0.58 | -0.33 | 51.6 | 51.1 | -0.136
MPATRKPMRYGHTEGHTEVCFDDSGSFIVTCGSDGDVRIWEDLDDDDPKFINVGEKAYSCALKSGKLVTAVSNNTIQVHTFPEGVPDGILTRFTTNANHVVFNGDGTKIAAGSSDFLVKIVDVMDSSQQKTFRGHDAPVLSLSFDPKDIFLASASCDGSVRVWQISDQTCAISWPLLQKCNDVINAKSICRLAWQPKSGKLLAIPVEKSVKLYRRESWSHQFDLSDNFISQTLNIVTWSPCGQYLAAGSINGLIIVWNVETKDCMERVKHEKGYAICGLAWHPTCGRISYTDAEGNLGLLENVCDPSGKTSSSKVSSRVEKDYNDLFDGDDMSNAGDFLNDNAVEIPSFSKGIINDDEDDEDLMMASGRPRQRSHILEDDENSVDISMLKTGSSLLKEEEEDGQEGSIHNLPLVTSQRPFYDGPMPTPRQKPFQSGSTPLHLTHRFMVWNSIGIIRCYNDEQDNAIDVEFHDTSIHHATHLSNTLNYTIADLSHEAILLACESTDELASKLHCLHFSSWDSSKEWIIDLPQNEDIEAICLGQGWAAAATSALLLRLFTIGGVQKEVFSLAGPVVSMAGHGEQLFIVYHRGTGFDGDQCLGVQLLELGKKKKQILHGDPLPLTRKSYLAWIGFSAEGTPCYVDSEGIVRMLNRGLGNTWTPICNTREHCKGKSDHYWVVGIHENPQQLRCIPCKGSRFPPTLPRPAVAILSFKLPYCQIATEKGQMEEQFWRSVIFHNHLDYLAKNGYEYEESTKNQATKEQQELLMKMLALSCKLEREFRCVELADLMTQNAVNLAIKYASRSRKLILAQKLSELAVEKAAELTATQVEEEEEEEDFRKKLNAGYSNTATEWSQPRFRNQVEEDAEDSGEADDEEKPEIHKPGQNSFSKSTNSSDVSAKSGAVTFSSQGRVNPFKVSASSKEPAMSMNSARSTNILDNMGKSSKKSTALSRTTNNEKSPIIKPLIPKPKPKQASAASYFQKRNSQTNKTEEVKEENLKNVLSETPAICPPQNTENQRPKTGFQMWLEENRSNILSDNPDFSDEADIIKEGMIRFRVLSTEERKVWANKAKGETASEGTEAKKRKRVVDESDETENQEEKAKENLNLSKKQKPLDFSTNQKLSAFAFKQE [WDHD1] | 2.58 | 6.16 | -0.1 | 47.9 | 49.6 | -0.0991
PIK3C2A | -0.0214 | 0.282 | -0.334 | 49.3 | 48.6 | -0.063
MPKLQGFEFWSRTLRGARHVVAPMVDQSELAWRLLSRRHGAQLCYTPMLHAQVFVRDANYRKENLYCEVCPEDRPLIVQFCANDPEVFVQAALLAQDYCDAIDLNLGCPQMIAKRGHYGAFLQDEWDLLQRMILLAHEKLSVPVTCKIRVFPEIDKTVRYAQMLEKAGCQLLTVHGRTKEQKGPLSGAASWEHIKAVRKAVAIPVFANGNIQCLQDVERCLRDTGVQGVMSAEGNLHNPALFEGRSPAVWELAEEYLDIVREHPCPLSYVRAHLFKLWHHTLQVHQELREELAKVKTLEGIAAVSQELKLRCQEEISRQEGAKPTGDLPFHWICQPYIRPGPREGSKEKAGARSKRALEEEEGGTEVLSKNKQKKQLRNPHKTFDPSLKPKYAKCDQCGNPKGNRCVFSLCRGCCKKRASKETADCPGHGLLFKTKLEKSLAWKEAQPELQEPQPAAPGTPGGFSEVMGSALA [DUS1L] | 0.994 | 1.71 | 0.086 | 47.3 | 48.9 | -0.169
MEEGGNLGGLIKMVHLLVLSGAWGMQMWVTFVSGFLLFRSLPRHTFGLVQSKLFPFYFHISMGCAFINLCILASQHAWAQLTFWEASQLYLLFLSLTLATVNARWLEPRTTAAMWALQTVEKERGLGGEVPGSHQGPDPYRQLREKDPKYSALRQNFFRYHGLSSLCNLGCVLSNGLCLAGLALEIRSL [TMEM205] | -2.96 | -1.84 | 0.0662 |  | 55.9 | -0.294
